Changes are numbered by the printed parent chain. Names may count otherwise. Each block holds one binder with its values, some of them ahead of it.
Columns and labels:
[1] = biological target: T1, human GM-CSF I117 isoform (human, UniProt P04141 18-144); experiment: cell-based or functional assay
[2] = biological target: T2, human GM-CSF T117 isoform (human, UniProt P04141 18-144); experiment: cell-based or functional assay
[3] = biological target: T3, macaca GM-CSF (rhesus, Macaca mulatta; cynomolgus, Macaca fascicularis, identical sequence) (Macaca mulatta / Macaca fascicularis, UniProt Q0MUT8 18-144 (Chlorocebus aethiops entry), limits assumed); experiment: cell-based or functional assay
T3 chain: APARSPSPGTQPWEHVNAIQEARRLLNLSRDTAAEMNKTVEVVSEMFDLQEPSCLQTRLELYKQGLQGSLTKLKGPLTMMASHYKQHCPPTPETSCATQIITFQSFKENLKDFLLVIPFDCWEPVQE

[4] = biological target: T1, human GM-CSF I117 isoform; experiment: TF-1 proliferation assay and KinExA
Protocol: To determine potency and affinity of the antibody, Kd measurements and a proliferation bioassay of TF-1 cells were performed. TF-1 is an erythroleukemic cell line from blood, which proliferates in response to e.g. GM-CSF. Kd determination was carried out with the Kinetic Exclusion Assay (KinExA®; Sapidyne Instruments, Inc., Boise, Id., USA).

[5] = biological target: T1, human GM-CSF I117 isoform; experiment: KinExA, affinity in solution, average n = 2
Protocol: (§1) The 4K21 and reference antibodies were incubated at concentration below the expected Kd with serial dilutions of human GM-CSF I117 or T117, or macaca GM-CSF up to equilibrium. The remaining free antibody was measured in a Kinetic exclusion assay with the KinExA® instrument. Kd was calculated by fitting the curve of the signal obtained versus the GM-CSF concentrations. The average of two experiments using different IgG concentrations was calculated.

[6] = biological target: T2, human GM-CSF T117 isoform; experiment: KinExA, affinity in solution, average n = 2
Protocol: as §1

[7] = biological target: T3, macaca GM-CSF (rhesus, Macaca mulatta; …); experiment: KinExA, affinity in solution, average n = 2
Protocol: as §1

[8] = biological target: T2, human GM-CSF T117 isoform; experiment: KinExA, affinity in solution; largest Kd ratio across the three GM-CSF targets, by Table 3 hGM-CSF T117 (174 pM) against hGM-CSF I117 (17 pM)
Protocol: as §1

[9] = biological target: T2, human GM-CSF T117 isoform; experiment: cell-based or functional assay; remark: listed apart in the source
[10] = biological target: T3, macaca GM-CSF (rhesus, Macaca mulatta; …); experiment: cell-based or functional assay
[11] = biological target: T1, human GM-CSF I117 isoform; experiment: cell-based or functional assay; remark: listed apart in the source
[12] = biological target: T2, human GM-CSF T117 isoform; experiment: cell-based or functional assay; remark: listed apart in the source
[13] = biological target: T3, macaca GM-CSF (rhesus, Macaca mulatta; …); experiment: cell-based or functional assay
[14] = biological target: T1, human GM-CSF I117 isoform; experiment: cell-based or functional assay; remark: listed apart in the source
[15] = biological target: T2, human GM-CSF T117 isoform; experiment: cell-based or functional assay; remark: listed apart in the source
[16] = biological target: T4, human GM-CSF A117 mutant (human, UniProt P04141 18-144); experiment: competition ELISA: antibody binding to coated human GM-CSF, soluble human GM-CSF A117 as competitor (one condition, concentration not given)
T4 construct: also called hGM-CSF A117
Text: Detection of humanized parental anti-GM-CSF 4K21 binding to coated wild-type GM-CSF is competed away by soluble […]. Binding of all optimized 4K21 antibodies to the GM-CSF coated wells is not affected anymore by the presence of A117 protein in solution.

[17] = biological target: T3, macaca GM-CSF (rhesus, Macaca mulatta; …); experiment: KinExA, affinity in solution; largest Kd ratio across the three GM-CSF targets, by Table 3 macaca (11 pM) against hGM-CSF I117 (4 pM)
Protocol: as §1

B1: anti-GM-CSF 4K21 hIgG1 K antibody (MSB0010259), recombinant chimeric 4K21 (antibody, V domains shown)
VH: EVQLVESGGGLVKSGGSLKLSCAASGFAFSAYDMSWVRQTPEKRLELVAYISSGGSSFYYPDTVKGRFTISRDNAKNTLYLQMSSLKSEDTAMYYCTRHLGFDYWGQGTTLTVSS
VL: DVVMTQTPLSLPVSLGDQASISCRSSQSLVNSNGNTYLHWFLQKPGQSPKLLIYKVSNRFSGVPDRFSGSGSGTDFTLKISRVEAEDLGVYFCSQSTHVPPTFGGGTKLEIK
notes: Murine variable domains fused to human constant IgG1 heavy chain and kappa light chain domains; also called parental chimeric 4K21
Fold improvement of humanized parental 4K21 on I117 (TF-1 proliferation IC50) [1]: 0.9 fold | IC50 (pM), inhibition of GM-CSF induced TF-1 proliferation (32 pM GM-CSF, average n = 3) [1]: 130 pM | Fold human T117/I117 (TF-1 proliferation IC50) [2]: 10.8 fold | Fold improvement of humanized parental 4K21 on T117 (TF-1 proliferation IC50) [2]: 1 fold | IC50 (pM), inhibition of GM-CSF induced TF-1 proliferation (32 pM GM-CSF, average n = 3) [2]: 1410 pM | Fold improvement of humanized parental 4K21 on macaca (TF-1 proliferation IC50) [3]: 0.7 fold | Fold macaca/human I117 (TF-1 proliferation IC50) [3]: 9.3 fold | IC50 (pM), inhibition of GM-CSF induced TF-1 proliferation (32 pM GM-CSF, average n = 3) [3]: 1220 pM | fold preference for GM-CSF I117 versus T117 [4]: > 10 fold | Kd [5]: 0.017 nM | Kd [6]: 0.174 nM | Kd [7]: 0.104 nM | fold affinity difference between the 2 hGM-CSF isoforms and the macaca ortholog [8]: ≤ 10 fold

B3: humanized parental anti-GM-CSF 4K21 VH3-07.1AL+VK2-A3.2 hIgG1 K antibody (MSB0010439) (antibody, V domains shown)
VH: EVQLVESGGGLVQPGGSLRLSCAASGFAFSAYDMSWVRQAPGKRLELVAYISSGGSSFYYPDTVKGRFTISRDNAKNSLYLQMNSLRAEDTAVYYCTRHLGFDYWGQGTLVTVSS
VL: DIVMTQSPLSLPVTPGEPASISCRSSQSLVNSNGNTYLHWYLQKPGQSPQLLIYKVSNRFSGVPDRFSGSGSGTDFTLKISRVEAEDVGVYYCSQSTHVPPTFGQGTKVEIK
notes: hIgG1 kappa; also called humanized parental 4K21 hVH hVL; humanized parental 4K21
fold worse IC50 on T117 than on I117, CD11b upregulation in neutrophils [9]: 10 fold | fold less efficient neutralization than on human GM-CSF (TF-1 proliferation assay) [10]: < 10 fold | Fold improvement of humanized parental 4K21 on I117 (TF-1 proliferation IC50) [1]: 1 fold | IC50 (pM), inhibition of GM-CSF induced TF-1 proliferation (32 pM GM-CSF, average n = 3) [1]: 121 pM | Fold human T117/I117 (TF-1 proliferation IC50) [2]: 11.6 fold | Fold improvement of humanized parental 4K21 on T117 (TF-1 proliferation IC50) [2]: 1 fold | IC50 (pM), inhibition of GM-CSF induced TF-1 proliferation (32 pM GM-CSF, average n = 3) [2]: 1400 pM | Fold improvement of humanized parental 4K21 on macaca (TF-1 proliferation IC50) [3]: 1 fold | Fold macaca/human I117 (TF-1 proliferation IC50) [3]: 6.6 fold | IC50 (pM), inhibition of GM-CSF induced TF-1 proliferation (32 pM GM-CSF, average n = 3) [3]: 793 pM | IC50 (pM), inhibition of GM-CSF induced IL-8 secretion in U937 cells (65 pM GM-CSF, n = 2) [11]: 170 pM | IC50 (pM), inhibition of GM-CSF induced IL-8 secretion in U937 cells (65 pM GM-CSF, n = 2) [12]: 930 pM | IC50 (pM), inhibition of GM-CSF induced IL-8 secretion in U937 cells (65 pM GM-CSF, n = 2) [13]: 1120 pM | Emax (%), inhibition of CD11b upregulation on neutrophils [14]: 65% | IC50 (nM), inhibition of CD11b upregulation on neutrophils [14]: 3.06 nM | Emax (%), inhibition of CD11b upregulation on neutrophils [15]: 68% | IC50 (nM), inhibition of CD11b upregulation on neutrophils [15]: 31.6 nM | fold preference for GM-CSF I117 versus T117 [4]: > 10 fold | Kd [5]: 0.021 nM | Kd [6]: 0.164 nM | Kd [7]: 0.063 nM

Now from value to binder:

fold preference for GM-CSF I117 versus T117 [4]: > 10 fold
B2: murine hybridoma-derived 4K21 antibody (antibody, V domains shown)
VH: B1 VH
VL: B1 VL
notes: also called murine 4K21; murine monoclonal antibody 4K21

Fold improvement of humanized parental 4K21 on I117 (TF-1 proliferation IC50) [1]: 4.4 fold | IC50 (pM), inhibition of GM-CSF induced TF-1 proliferation (32 pM GM-CSF, average n = 3) [1]: 28 pM | Fold human T117/I117 (TF-1 proliferation IC50) [2]: 1.6 fold | Fold improvement of humanized parental 4K21 on T117 (TF-1 proliferation IC50) [2]: 32 fold | IC50 (pM), inhibition of GM-CSF induced TF-1 proliferation (32 pM GM-CSF, average n = 3) [2]: 44 pM | Fold improvement of humanized parental 4K21 on macaca (TF-1 proliferation IC50) [3]: 19 fold | Fold macaca/human I117 (TF-1 proliferation IC50) [3]: 1.5 fold | IC50 (pM), inhibition of GM-CSF induced TF-1 proliferation (32 pM GM-CSF, average n = 3) [3]: 42 pM | IC50 (pM), inhibition of GM-CSF induced IL-8 secretion in U937 cells (65 pM GM-CSF, n = 2) [11]: 311 pM | IC50 (pM), inhibition of GM-CSF induced IL-8 secretion in U937 cells (65 pM GM-CSF, n = 2) [12]: 354 pM | IC50 (pM), inhibition of GM-CSF induced IL-8 secretion in U937 cells (65 pM GM-CSF, n = 2) [13]: 286 pM | binding result [16]: binds
B4: 4K21 hVH S55K-T62S hVL S27eY-N28I-H34S-N53R-H93F (MSB0010629) (antibody, V domains shown)
VH: B3 VH with S56K, T63S
VL: B3 VL with S32Y, N33I, H39S, N58R, H98F
notes: Tested as IgG ('optimized 4K21 IgGs'); the humanized parent is hIgG1 kappa; also called optimized 4K21 antibody with S27eY; 4K21 (4K21 VH S55K-T62S VL S27eY-N28I-H34S-N53R-H93F)

Fold improvement of humanized parental 4K21 on I117 (TF-1 proliferation IC50) [1]: 6.6 fold | IC50 (pM), inhibition of GM-CSF induced TF-1 proliferation (32 pM GM-CSF, average n = 3) [1]: 18 pM | Fold human T117/I117 (TF-1 proliferation IC50) [2]: 1.2 fold | Fold improvement of humanized parental 4K21 on T117 (TF-1 proliferation IC50) [2]: 63 fold | IC50 (pM), inhibition of GM-CSF induced TF-1 proliferation (32 pM GM-CSF, average n = 3) [2]: 22 pM | Fold improvement of humanized parental 4K21 on macaca (TF-1 proliferation IC50) [3]: 11 fold | Fold macaca/human I117 (TF-1 proliferation IC50) [3]: 3.9 fold | IC50 (pM), inhibition of GM-CSF induced TF-1 proliferation (32 pM GM-CSF, average n = 3) [3]: 72 pM | IC50 (pM), inhibition of GM-CSF induced IL-8 secretion in U937 cells (65 pM GM-CSF, n = 2) [11]: 257 pM | IC50 (pM), inhibition of GM-CSF induced IL-8 secretion in U937 cells (65 pM GM-CSF, n = 2) [12]: 181 pM | IC50 (pM), inhibition of GM-CSF induced IL-8 secretion in U937 cells (65 pM GM-CSF, n = 2) [13]: 501 pM | Emax (%), inhibition of CD11b upregulation on neutrophils [14]: 84% | IC50 (nM), inhibition of CD11b upregulation on neutrophils [14]: 1.65 nM | Emax (%), inhibition of CD11b upregulation on neutrophils [15]: 97% | IC50 (nM), inhibition of CD11b upregulation on neutrophils [15]: 1.98 nM | Kd [5]: 0.004 nM | Kd [6]: 0.007 nM | Kd [7]: 0.011 nM | fold affinity difference between the 2 hGM-CSF isoforms and the macaca ortholog [17]: < 3 fold | binding result [16]: binds
B5: 4K21 hVH S55K-T62S hVL N28I-H34S-N53R-H93F (MSB0010628) (antibody, V domains shown)
VH: B3 VH with S56K, T63S
VL: B3 VL with N33I, H39S, N58R, H98F
notes: Tested as IgG ('optimized 4K21 IgGs'); the humanized parent is hIgG1 kappa; also called optimized 4K21 antibody; 4K21 (4K21 VH S55K-T62S VL N28I-H34S-N53R-H93F)

— patent US20140023641A1 (MERCK SERONO S A, published 2014)
